Measured values: the RNAGym collection of RNA variant scans (doi:10.7554/elife.90254)

B1: LINE1-full (parent)
chain: UACGUAGGUGGUUUUCCCCUGAUAGUGCUAAGGGGGCCUGGAAGUUUGGACUGGGCAGAGCUCAACACAGCGUGGCAAAGUGGCUGUGGCUAGACUGCCUCUCUGGAUUCCUCGUCACUCAGCAGGGCAUCUCUGAGAGAAAUGCC
B2: OR4K15 (parent)
chain: GUUAACGGUCAUAGGCCAUGGAAACUAGGAGCACCAUUUCGCUGCCAGUGAAGAAAUGAACAAAGAAAAUCUGGGCCAGGCAGGCAUCAAAAGAAAUAGUCUUGCGCUCAACCAGAAAGUCUGUAAUCAUUUUAAGGGUA

Variants of: B1
Assay: self-cleavage, relative activity (ratio to wild type); higher = more cleavage; in vitro, sequencing; the parent is a self-cleaving ribozyme

Compared with U132C A140U, U132C A141G is higher in self-cleavage: 1.43 for the first, 1.46 for the second.

First: U132C A142C
Second: U132C A142U
The self-cleavage of the first is higher: 1.51 for the first, 1.2 for the second.

Going from U132C C146U to U132C G139U, the self-cleavage rises from 1.51 to 2.66.

Compared with U132C G144U, U132G is higher in self-cleavage: 1.43 for the first, 1.52 for the second.

Going from C133A A142G to C133A U143C, the self-cleavage rises from 1.4 to 1.67.

First: C133U A138G
Second: C133U A138U
The self-cleavage of the first is lower: 1.32 for the first, 2.36 for the second.

Going from U134A to U134A A136G, the self-cleavage falls from 0.98 to 0.53.

Compared with U134A A136U, U134A A140C is lower in self-cleavage: 1.27 for the first, 0.55 for the second.

Going from U134A A140G to U134A A140U, the self-cleavage rises from 0.53 to 0.85.

Going from U134A A141G to U134A A142C, the self-cleavage rises from 1.12 to 1.23.

Compared with U134A C145U, U134C is higher in self-cleavage: 0.83 for the first, 1.18 for the second.

Compared with U134C A138G, U134C A140G is higher in self-cleavage: 1.4 for the first, 1.58 for the second.

Going from U134C A141G to U134C C145U, the self-cleavage falls from 1.41 to 1.1.

Compared with U134C C146U, U134C G135A is higher in self-cleavage: 1.65 for the first, 2.1 for the second.

Going from U134C G139A to U134G, the self-cleavage rises from 1.29 to 1.46.

Compared with U134G A136U, U134G A140G is lower in self-cleavage: 1.72 for the first, 1.03 for the second.

Going from U134G A141G to U134G A142G, the self-cleavage falls from 1.44 to 1.16.

First: U134G G137U
Second: G135A
The self-cleavage of the first is lower: 0.94 for the first, 1.27 for the second.

Going from G135A A138U to G135A C145U, the self-cleavage rises from 1.01 to 1.46.

First: G135C
Second: G135U
The self-cleavage of the first is higher: 1.55 for the first, 1.22 for the second.

First: G135U A140G
Second: A136C A140G
The self-cleavage of the first is lower: 1.08 for the first, 1.53 for the second.

Going from A136C C145A to A136G A138G, the self-cleavage falls from 1.72 to 1.6.

First: A136G A138U
Second: A136G A141G
The self-cleavage of the first is higher: 1.98 for the first, 1.03 for the second.

Going from A136G A142G to A136G C145U, the self-cleavage falls from 1.47 to 1.45.

First: A136G C146U
Second: A136G G137A
The self-cleavage of the first is lower: 1.91 for the first, 2.12 for the second.

First: A136G G144A
Second: A136G U143A
The self-cleavage of the first is lower: 0.88 for the first, 1.34 for the second.

Compared with A136U A138G, A136U A140G is higher in self-cleavage: 1.55 for the first, 1.7 for the second.

Compared with A136U A140U, A136U A141G is lower in self-cleavage: 1.65 for the first, 1.3 for the second.

Going from A136U A142C to A136U C146U, the self-cleavage rises from 1.43 to 1.58.

First: A136U U143A
Second: G137A
The self-cleavage of the first is higher: 1.41 for the first, 1.19 for the second.

Compared with G137A A140G, G137C is lower in self-cleavage: 1.4 for the first, 1.3 for the second.

Compared with G137C A138G, G137U is higher in self-cleavage: 1.26 for the first, 1.31 for the second.

Compared with A138C, A138C A140G is lower in self-cleavage: 0.76 for the first, 0.07 for the second.

Compared with A138C U143A, A138G is lower in self-cleavage: 1.94 for the first, 1.21 for the second.

Going from A138G A140C to A138G A140G, the self-cleavage falls from 1.8 to 1.52.

Going from A138G A140U to A138G A142C, the self-cleavage falls from 1.29 to 0.16.

First: A138G C145A
Second: A138G C146A
The self-cleavage of the first is higher: 2.76 for the first, 1.17 for the second.

Compared with A138G G144A, A138G G144C is higher in self-cleavage: 0.14 for the first, 1.6 for the second.

Going from A138G U143C to A138G U143G, the self-cleavage falls from 1.54 to 1.34.

Compared with A138U, A138U A140U is lower in self-cleavage: 1.1 for the first, 0.84 for the second.

First: A138U A141G
Second: A138U A142G
The self-cleavage of the first is higher: 1.17 for the first, 0.93 for the second.

First: A138U U143A
Second: G139A A140G
The self-cleavage of the first is higher: 1.52 for the first, 0.19 for the second.

First: G139A A142G
Second: G139U C145G
The self-cleavage of the first is lower: 1.15 for the first, 2.02 for the second.

Compared with A140C U143C, A140G A141U is lower in self-cleavage: 1.81 for the first, 0.82 for the second.

Going from A140G A142U to A140G C146U, the self-cleavage rises from 0.84 to 1.63.

Going from A140G G144U to A140G U143C, the self-cleavage falls from 1.05 to 0.26.

Going from A140U A141G to A140U G144A, the self-cleavage falls from 1.41 to 1.39.

Going from A140U U143A to A140U U143C, the self-cleavage rises from 1.41 to 1.54.

Going from A141C to A141C A142G, the self-cleavage rises from 1.04 to 1.26.

Going from A141C U143C to A141G, the self-cleavage falls from 1.67 to 1.1.

First: A141G A142C
Second: A141G C145U
The self-cleavage of the first is lower: 0.39 for the first, 1 for the second.

Compared with A141G G144A, A141G U143A is higher in self-cleavage: 1.28 for the first, 1.29 for the second.

First: A141U
Second: A141U U143C
The self-cleavage of the first is higher: 1.04 for the first, 0.28 for the second.

First: A142C U143A
Second: A142G C146U
The self-cleavage of the first is lower: 1.41 for the first, 1.49 for the second.

Going from A142G G144A to A142G U143A, the self-cleavage falls from 1.44 to 1.28.

Compared with A142G U143C, A142U U143A is lower in self-cleavage: 1.31 for the first, 1.13 for the second.

Going from U143A to U143C, the self-cleavage rises from 1.12 to 1.18.

Going from U143C C145U to U143C C146U, the self-cleavage rises from 1.06 to 1.51.

Going from U143G to G144A, the self-cleavage rises from 1.11 to 1.23.

Compared with G144C, G144C C145U is lower in self-cleavage: 1.34 for the first, 0.99 for the second.

Compared with G144U, C145U C146A is higher in self-cleavage: 1.58 for the first, 1.59 for the second.

Compared with C146A, C146U is lower in self-cleavage: 1.45 for the first, 1.29 for the second.

Variants of: B2
Assay: as above

Going from A82U A96G to A52U U97C, the self-cleavage rises from 0.24 to 0.96.

Compared with U127A A129G, C61U A94G is lower in self-cleavage: 2.49 for the first, 1.63 for the second.

Compared with C34U A96G, A118G A140C is lower in self-cleavage: 2.68 for the first, 1.36 for the second.

Compared with A67G C113U, A56G A62C is higher in self-cleavage: 0.17 for the first, 1.26 for the second.

First: A67G C101A
Second: A22G U97A
The self-cleavage of the first is lower: 0.19 for the first, 0.96 for the second.

Compared with A55G G58A, A69U A91G is higher in self-cleavage: 1.63 for the first, 1.79 for the second.

Going from G80A to A89G U124A, the self-cleavage rises from 0.24 to 1.38.

Compared with U43A A66G, C42U A117G is higher in self-cleavage: 1.96 for the first, 2.46 for the second.

Going from G93A A111G to A18G A90U, the self-cleavage rises from 0.04 to 2.38.

Compared with A22U U39A, U3A G65U is lower in self-cleavage: 2.33 for the first, 0.33 for the second.

Compared with U100A U139C, U2C U102A is lower in self-cleavage: 0.83 for the first, 0.73 for the second.

Compared with A27G A125U, A91G A117G is higher in self-cleavage: 1.41 for the first, 1.48 for the second.

First: U43C C105A
Second: U19C C45U
The self-cleavage of the first is lower: 0.02 for the first, 0.47 for the second.

Going from U37A A118G to A51G A63U, the self-cleavage rises from 1.4 to 1.83.

Compared with U72C U122C, U127C A134G is higher in self-cleavage: 0.03 for the first, 1.09 for the second.

Going from A30G U37C to A5G A56U, the self-cleavage rises from 0.98 to 1.18.

First: G75C A116G
Second: G106U A114G
The self-cleavage of the first is higher: 0.05 for the first, 0 for the second.

Compared with U2A U108C, U37C U120C is higher in self-cleavage: 0.04 for the first, 0.84 for the second.

First: A30G U49C
Second: U70C U139A
The self-cleavage of the first is lower: 1.07 for the first, 1.3 for the second.

First: A54U U133A
Second: A68G C112U
The self-cleavage of the first is higher: 1.49 for the first, 0.02 for the second.

Going from A59G U102C to A54G G84A, the self-cleavage rises from 1.5 to 2.33.

With A27G A52G the self-cleavage was 1.44.
